In article PMC5218534, “Structural and biochemical analyses of the DEAD-box ATPase Sub2 in association with THO or Yra1” (eLife, 2017):
Blank lines part the entries; values can stand above or below the molecule they belong to.

Legend:
Sub2 (full-length) = target: T1, Sub2 (full-length) (Saccharomyces cerevisiae, UniProt Q07478); assay: NADH enzyme-coupled ATPase assay; type: biochemical; details: 1 mM ATP; 10 µM poly(U) 20-mer RNA; 2 mM MgCl2, pH 7.0, 37 °C; no THO or Yra1
T1 construct: full-length, expressed in E. coli BL21-CodonPlus(DE3)-RIL with N-terminal GST tag removed by TEV
T1 sequence (Q07478 1-446): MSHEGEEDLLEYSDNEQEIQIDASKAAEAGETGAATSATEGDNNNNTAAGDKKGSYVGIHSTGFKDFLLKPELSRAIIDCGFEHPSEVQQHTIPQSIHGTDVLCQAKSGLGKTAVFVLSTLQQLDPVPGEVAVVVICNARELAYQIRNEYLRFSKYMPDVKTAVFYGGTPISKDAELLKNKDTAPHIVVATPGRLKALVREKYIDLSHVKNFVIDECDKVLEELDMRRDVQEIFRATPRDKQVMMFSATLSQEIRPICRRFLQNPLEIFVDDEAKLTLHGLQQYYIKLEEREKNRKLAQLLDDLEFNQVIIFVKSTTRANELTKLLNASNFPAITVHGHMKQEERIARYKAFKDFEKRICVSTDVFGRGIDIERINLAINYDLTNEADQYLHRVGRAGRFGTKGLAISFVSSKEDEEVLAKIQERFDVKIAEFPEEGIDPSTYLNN

[1] = target: THO core complex (THO*) (S. cerevisiae | S. bayanus) (UniProt P53552)
Yra1 C-box = target: T2, Yra1 C-box (UniProt Q12159 208-226); assay: EMSA; C-box without Sub2; EMSA: 20 nM RNA, 20 mM HEPES pH 7.0, 100 mM NaCl, 1 mM TCEP, 2 mM MgCl2, 5% glycerol, 0.5 U/ul SUPERase-In, 1 mM nucleotide as indicated; room temperature, 10 min; 5% native PAGE, 45 mM Tris-borate; details: label: 5' Alexa488; single strand
T2 chain: AKKSLEDLDKEMADYFEKK

Yra1-C = target: T3, Yra1-C (UniProt Q12159 185-226); assay: EMSA; Yra1-C without Sub2; EMSA: 20 nM RNA, 20 mM HEPES pH 7.0, 100 mM NaCl, 1 mM TCEP, 2 mM MgCl2, 5% glycerol, 0.5 U/ul SUPERase-In, 1 mM nucleotide as indicated; room temperature, 10 min; 5% native PAGE, 45 mM Tris-borate; details: protein: recombinant; tags: N-terminal GST removed by TEV; label: 5' Alexa488; single strand
T3 chain: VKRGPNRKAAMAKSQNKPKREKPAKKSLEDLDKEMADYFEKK

Sub2 = target: T4, Sub2 (UniProt Q07478 1-446); assay: EMSA; 1 mM ATP-gamma-S, 2 mM MgCl2; EMSA: 20 nM RNA, 20 mM HEPES pH 7.0, 100 mM NaCl, 1 mM TCEP, 2 mM MgCl2, 5% glycerol, 0.5 U/ul SUPERase-In, 1 mM nucleotide as indicated; room temperature, 10 min; 5% native PAGE, 45 mM Tris-borate; details: protein: recombinant; tags: N-terminal GST removed by TEV; label: 5' Alexa488; single strand
T4 sequence: T1 sequence (Q07478 1-446)

Sub2;Yra1-C = target: T5, Sub2;Yra1-C (Saccharomyces cerevisiae?;Saccharomyces …, UniProt Q07478;Q12159 1-446;185-226, |); assay: EMSA; 1 mM ATP-gamma-S, 2 mM MgCl2; Yra1-C promotes Sub2-RNA binding, trimeric complex; EMSA: 20 nM RNA, 20 mM HEPES pH 7.0, 100 mM NaCl, 1 mM TCEP, 2 mM MgCl2, 5% glycerol, 0.5 U/ul SUPERase-In, 1 mM nucleotide as indicated; room temperature, 10 min; 5% native PAGE, 45 mM Tris-borate; details: protein: recombinant;recombinant; tags: N-terminal GST removed by TEV;N-terminal GST removed by TEV; copies: 1;1; label: 5' Alexa488; single strand
T5 sequence 1: T1 sequence (Q07478 1-446)
T5 sequence 2: T3 chain

Sub2 (a.a. 62-446) = target: T6, Sub2 (a.a. 62-446) (S. cerevisiae, UniProt Q07478 62-446); assay: crystal structure; Sub2 (62-446), Yra1-C* and poly(U) 15-mer RNA mixed 1:1.2:1.2 with 2 mM MgCl2 and ADP•BeF3; sitting drop, 4 °C, 100 mM Bis-Tris pH 5.5, 20% PEG3350, 0.2 M ammonium acetate; 2.6 Å; details: both partners purified
T6 construct: source: E. coli BL21-CodonPlus(DE3)-RIL, purified (glutathione sepharose, TEV, mono Q, Superdex 200); not shown: GST, N-terminal, cleaved
T6 sequence (looked up): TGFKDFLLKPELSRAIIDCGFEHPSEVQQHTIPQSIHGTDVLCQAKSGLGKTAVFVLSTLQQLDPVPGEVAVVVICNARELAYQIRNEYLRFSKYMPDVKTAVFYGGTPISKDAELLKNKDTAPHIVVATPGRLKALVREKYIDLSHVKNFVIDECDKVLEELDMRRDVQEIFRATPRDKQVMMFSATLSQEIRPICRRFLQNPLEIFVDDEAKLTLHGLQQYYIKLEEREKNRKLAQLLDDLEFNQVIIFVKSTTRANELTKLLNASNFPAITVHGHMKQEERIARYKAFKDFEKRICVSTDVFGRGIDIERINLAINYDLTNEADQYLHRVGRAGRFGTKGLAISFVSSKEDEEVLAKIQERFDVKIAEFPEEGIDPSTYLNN

[2] = target: T7, DEAD-box ATPase Sub2, full length (S. cerevisiae, UniProt Q07478 1-446); assay: cell-based or functional assay
T7 sequence (looked up): T1 sequence (Q07478 1-446)

Sub2 (62-446);Yra1-C* = target: T8, Sub2 (62-446);Yra1-C* (Saccharomyces cerevisiae?;Saccharomyces …, UniProt Q07478;Q12159 62-446;200-226, |); assay: X-ray crystallography 2.6 A; ADP-BeF3; EMSA: 20 nM RNA, 20 mM HEPES pH 7.0, 100 mM NaCl, 1 mM TCEP, 2 mM MgCl2, 5% glycerol, 0.5 U/ul SUPERase-In, 1 mM nucleotide as indicated; room temperature, 10 min; 5% native PAGE, 45 mM Tris-borate; details: protein: recombinant;recombinant; tags: N-terminal GST removed by TEV;N-terminal GST removed by TEV; copies: 1;1; single strand
T8 sequence 1: T6 sequence (looked up)
T8 sequence 2: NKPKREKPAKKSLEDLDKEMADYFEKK

Chain of THO core complex (THO*) (S. cerevisiae | S. bayanus) (P53552 whole entry, looked up, one chain of several): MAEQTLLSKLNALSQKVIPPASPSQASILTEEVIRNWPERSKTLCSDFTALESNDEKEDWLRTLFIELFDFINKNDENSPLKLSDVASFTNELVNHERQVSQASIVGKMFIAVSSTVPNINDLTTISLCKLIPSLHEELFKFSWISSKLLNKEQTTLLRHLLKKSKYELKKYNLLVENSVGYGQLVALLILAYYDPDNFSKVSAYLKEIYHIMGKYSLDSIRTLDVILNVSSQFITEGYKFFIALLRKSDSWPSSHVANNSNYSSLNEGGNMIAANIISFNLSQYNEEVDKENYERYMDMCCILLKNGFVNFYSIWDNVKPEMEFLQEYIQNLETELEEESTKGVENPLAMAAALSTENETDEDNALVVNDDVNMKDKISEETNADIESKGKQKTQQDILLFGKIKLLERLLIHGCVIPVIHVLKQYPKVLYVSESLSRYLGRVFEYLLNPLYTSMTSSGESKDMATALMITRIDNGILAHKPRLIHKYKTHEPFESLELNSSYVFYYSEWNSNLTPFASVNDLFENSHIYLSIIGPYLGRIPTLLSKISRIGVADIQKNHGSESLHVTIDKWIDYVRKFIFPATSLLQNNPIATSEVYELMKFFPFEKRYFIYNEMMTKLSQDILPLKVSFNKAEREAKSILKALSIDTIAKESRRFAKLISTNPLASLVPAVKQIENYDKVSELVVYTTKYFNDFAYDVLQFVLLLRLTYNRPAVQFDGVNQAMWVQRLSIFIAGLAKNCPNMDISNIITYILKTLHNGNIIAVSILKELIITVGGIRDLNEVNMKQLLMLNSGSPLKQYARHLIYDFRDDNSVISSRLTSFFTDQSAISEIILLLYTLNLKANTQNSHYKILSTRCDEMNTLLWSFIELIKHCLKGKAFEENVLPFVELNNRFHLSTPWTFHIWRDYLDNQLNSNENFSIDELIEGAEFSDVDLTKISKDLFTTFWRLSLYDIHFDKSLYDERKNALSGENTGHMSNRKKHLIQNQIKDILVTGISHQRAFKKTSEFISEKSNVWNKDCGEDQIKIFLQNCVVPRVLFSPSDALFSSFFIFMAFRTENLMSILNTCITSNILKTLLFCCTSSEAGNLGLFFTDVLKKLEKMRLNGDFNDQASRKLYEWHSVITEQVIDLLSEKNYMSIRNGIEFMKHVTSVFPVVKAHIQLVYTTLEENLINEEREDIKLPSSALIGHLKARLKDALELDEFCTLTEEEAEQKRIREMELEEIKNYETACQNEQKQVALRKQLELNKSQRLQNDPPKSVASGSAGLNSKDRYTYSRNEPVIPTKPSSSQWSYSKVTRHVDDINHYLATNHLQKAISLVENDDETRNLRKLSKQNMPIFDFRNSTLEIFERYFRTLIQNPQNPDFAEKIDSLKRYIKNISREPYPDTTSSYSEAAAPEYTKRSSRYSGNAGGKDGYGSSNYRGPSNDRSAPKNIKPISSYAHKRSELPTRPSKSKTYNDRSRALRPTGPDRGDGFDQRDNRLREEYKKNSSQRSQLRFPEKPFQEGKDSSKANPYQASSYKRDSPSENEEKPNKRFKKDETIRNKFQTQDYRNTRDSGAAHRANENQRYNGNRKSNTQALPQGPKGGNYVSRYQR

stimulation of the Sub2 ATPase activity by THO* (NADH-coupled ATPase assay, 2 μM Sub2, 2 μM THO, 10 μM poly(U) RNA, 37 °C) [1]: 3.5 fold
B1: DEAD-box ATPase Sub2, full length (enzyme)
chain: T1 sequence (Q07478 1-446)

binding result (Sub2 (a.a. 62-446)): binds
B2: truncated Yra1-C (Yra1-C*, a.a. 200-226) (domain or fragment, S. cerevisiae, UniProt Q12159 200-226, looked up)
chain: NKPKREKPAKKSLEDLDKEMADYFEKK
notes: source: E. coli BL21-CodonPlus(DE3)-RIL, purified (glutathione sepharose, TEV, mono S, Superdex 200); not shown: GST, N-terminal, cleaved

stimulation of the Sub2 ATPase activity by Yra1-C (NADH-coupled ATPase assay, 2 μM Sub2, 10 μM Yra1, 10 μM poly(U) RNA, 37 °C) [2]: ~2 fold
Molecule: VKRGPNRKAAMAKSQNKPKREKPAKKSLEDLDKEMADYFEKK (domain or fragment, S. cerevisiae, UniProt Q12159 185-226, looked up) [C-terminal fragment of Yra1, Yra1-C (a.a. 185-226)]

The remaining lines, values behind:

Molecule: Nc1ncnc2c1ncn2[C@@H]1O[C@H](COP(=O)(O)OP(=O)(O)OP(=O)(O)O)[C@@H](O)[C@H]1O [ATP]
NADH enzyme-coupled ATPase assay (Sub2 (full-length)): Sub2 ATPase activity (mole of ADP produced per second per mole of Sub2)

Molecule: UUUUUUUUUUUUUUUUUUUU (ssRNA) [poly(U) 20-mer RNA]
binding result (Yra1 C-box): no binding
binding result (Yra1-C): binds
binding result (Sub2): binds
binding result (Sub2;Yra1-C): binds

Molecule: UUUUUUUUUUUUUUU (ssRNA) [poly(U) 15-mer RNA]
binding result (Sub2 (62-446);Yra1-C*): binds
